{"source": "paper PMC9627735", "about": "(RSC Chemical Biology, 2022)", "molecules": {"B1": {"name": "recombinant human Bri2 BRICHOS T206W (domain or fragment, UniProt Q9Y287 113-231, looked up)", "chain": "QTIEENIKIFEEEEVEFISVPVPEFADSDPANIVHDFNKKLTAYLDLNLDKCYVIPLNTSIVMPPRNLLELLINIKAGTYLPQSYLIHEHMVIWDRIENIDHLGFFIYRLCHDKETYKL", "notes": "integral membrane protein 2B (ITM2B, Bri2), human, BRICHOS domain, residues 113-231, with Thr206 replaced by Trp; also called rh Bri2 BRICHOS T206W; source: E. coli SHuffle T7, purified (Ni-NTA, thrombin cleavage, second Ni-NTA, SEC); not shown: His6, N-terminal, cleaved; NT*, N-terminal, cleaved"}, "B2": {"name": "recombinant human Bri2 BRICHOS D148N (domain or fragment, UniProt Q9Y287 113-231, looked up)", "chain": "B1 chain with D36N, W94T", "notes": "integral membrane protein 2B (ITM2B, Bri2), human, BRICHOS domain, residues 113-231, with D148N; Occurs as monomers, dimers and large oligomers, isolated by SEC; all species are this one construct; also called rh Bri2 BRICHOS D148N; source: E. coli SHuffle T7, purified (Ni-NTA, thrombin cleavage, second Ni-NTA, SEC); not shown: His6, N-terminal, cleaved; NT*, N-terminal, cleaved"}, "B3": {"name": "recombinant human wildtype proSP-C BRICHOS (domain or fragment, UniProt P11686 86-197, looked up)", "chain": "EHLVTTATFSIGSTGLVVYDYQQLLIAYKPAPGTCCYIMKIAPESIPSLEALTRKVHNFQMECSLQAKPAVPTSKLGQAEGRDAGSAPSGGDPAFLGMAVSTLCGEVPLYYI", "notes": "prosurfactant protein C (proSP-C), human, BRICHOS domain, residues 86-197; Forms trimers and some monomers on SEC; also called rh wildtype proSP-C BRICHOS; wt proSP-C BRICHOS; source: E. coli Origami 2 (DE3) pLysS, purified (Ni-NTA, ion exchange); not shown: thioredoxin, N-terminal, cleaved"}, "B4": {"name": "recombinant human proSP-C BRICHOS D105N (domain or fragment, UniProt P11686 86-197, looked up)", "chain": "B3 chain with D20N", "notes": "prosurfactant protein C (proSP-C), human, BRICHOS domain, residues 86-197, with D105N; Made by site-directed mutagenesis of the wildtype plasmid; expressed and purified in parallel with the wildtype; also called rh proSP-C BRICHOS D105N; D105N mutant; source: E. coli Origami 2 (DE3) pLysS, purified (Ni-NTA, ion exchange); not shown: thioredoxin, N-terminal, cleaved"}}, "key": {"[1]": {"target": "recombinant human wildtype Bri2 BRICHOS (human) (UniProt Q9Y287)", "assay": "SEC; rh Bri2 BRICHOS at pH 6.0, 20 mmol L^-1 NaPi, 0.2 mmol L^-1 EDTA (ESI Fig. S2c, d); monomer to dimer"}, "[2]": {"target": "recombinant human wildtype Bri2 BRICHOS (human) (UniProt Q9Y287)", "assay": "SEC; rh Bri2 BRICHOS wildtype and D148N at rising concentrations, 0.5 to 200 μmol L^-1 (ESI Fig. S2a, b, S3, S4); monomer to dimer"}, "[3]": {"target": "the molecule itself", "assay": "other fluorescence titration; Trp fluorescence of rh Bri2 BRICHOS T206W monomers, 2 μmol L^-1, 20 mmol L^-1 NaPi, 0.2 mmol L^-1 EDTA, pH 6.3-8.0; excitation 280 nm; monomer to dimer"}, "[4]": {"target": "the molecule itself", "assay": "SEC; rh Bri2 BRICHOS wildtype and D148N at rising concentrations, 0.5 to 200 μmol L^-1 (ESI Fig. S2a, b, S3, S4); monomer to dimer"}, "[5]": {"target": "the molecule itself", "assay": "SEC; rh Bri2 BRICHOS species obtained by thrombin cleavage of isolated NT*-Bri2 BRICHOS species; Superdex 200 PG, 200 GL or 75 PG; 20 mmol L^-1 NaPi, 0.2 mmol L^-1 EDTA"}, "[6]": {"target": "the molecule itself", "assay": "SEC; purified rh proSP-C BRICHOS variants on Superdex 200 GL"}}, "note": "Substitutions are numbered along the chain they refer to. Names and notes keep the numbering of the source."}
{"molecule": "recombinant human wildtype Bri2 BRICHOS (from UniProt Q9Y287 113-231) (domain or fragment)", "values": [{"measurement": "stoichiometry N", "setting": "[1]", "value": 2}, {"measurement": "stoichiometry N", "setting": "[2]", "value": 2}]}
{"molecule": "B1", "values": [{"measurement": "binding result", "setting": "[3]", "value": "binds"}]}
{"molecule": "B2", "values": [{"measurement": "ratio of dimers to monomers at 0.5 μmol L^-1", "setting": "[4]", "value": "~1"}, {"measurement": "stoichiometry N", "setting": "[5]", "value": 2}]}
{"molecule": "B3", "values": [{"measurement": "stoichiometry N", "setting": "[6]", "value": 3}]}
{"molecule": "B4", "values": [{"measurement": "stoichiometry N", "setting": "[6]", "value": 3}]}
